From paper PMC8274395 (Biochemistry, 2021)

Molecular target: the molecule itself
Assay: crystal structure

B1: Cj1441, UDP-glucose 6-dehydrogenase from Campylobacter jejuni NCTC 11168 (enzyme)
chain: MKIVIVGIGYVGLANAILFSKNNENEVVLLDIDENKIQSINNHKSPIKDKLIEKFFVQNISKLHATSNIKEAYFNADFAVIATPTDYDEQLNFFDTRSIENVLKDIKNINSKINVIIKSTVPIGYTKTIKQKFNMSNIVFSPEFLREGSALYDSLYPSRIIIGDKSVLGKTIGDLFLKNIEKKNVDIFYMDSDEAESVKLFSNTYLAMRVGFFNEVDSYARKHNLNSADIIKGISADDRIGKYYNNPSFGYGGYCLPKDTKQLLANFYNIPNSLIKAIVETNEIRKKFITQLILEKKPNILGIYRLIMKQNSDNFRNSVIIDIIKYLQEYNSNIELIIYEPLVKEKKFLNIKVENDFNVFGAKVDLIIANRFDDKLKEIKDKVFSADVFYTDI
binding result: binds
